Here are results for 94 variants from the supplement of paper PMC10567573.

The chains are these.
B1: PLK2 (parent)
chain: MELLRTITYQPAASTKMCEQALGK
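Also: lentivirally expressed fusions sorted by FACS into six bins by GFP to DsRed ratio, PSI derived from sequencing read proportions per bin multiplied by bin number.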

The variants in the data set derive from B1. The data set can be described thus: protein stability index of a GFP-peptide fusion (GPS, HEK-293T) (PSI 1-6); higher = more stable. The conditions noted are these: c terminus: a fixed tail appended.
Consider MELLLTITYQPAASTKMCEQALGK [R5L], for which the protein stability index is 3.55.

MELLWTITYQPAASTKMCEQALGK [R5W]: the protein stability index was found to be 2.88.

MELLMTITYQPAASTKMCEQALGK [R5M]: the protein stability index was 2.36.

Turning to MELLATITYQPAASTKMCEQALGK [R5A], the protein stability index was 1.92.

Consider MELLQTITYQPAASTKMCEQALGK [R5Q], for which the protein stability index came out at 3.26.

On to MELLDTITYQPAASTKMCEQALGK [R5D], for which the protein stability index amounted to 3.95.

Take MELLHTITYQPAASTKMCEQALGK [R5H]: the protein stability index is 3.02.

As for MELLYTITYQPAASTKMCEQALGK [R5Y], the protein stability index amounted to 1.4.

As to MELLSTITYQPAASTKMCEQALGK [R5S], the protein stability index amounted to 2.71.

In the case of MELLKTITYQPAASTKMCEQALGK [R5K], the protein stability index came to 3.52.

MELLPTITYQPAASTKMCEQALGK [R5P]: the protein stability index turned out to be 3.83.

MELLNTITYQPAASTKMCEQALGK [R5N]: the protein stability index was determined as 3.79.

Regarding MELLFTITYQPAASTKMCEQALGK [R5F], the protein stability index came out at 2.18.

Take MELLVTITYQPAASTKMCEQALGK [R5V]: the protein stability index worked out at 4.09.

In the case of MELLTTITYQPAASTKMCEQALGK [R5T], the protein stability index is 2.47.

With MELLGTITYQPAASTKMCEQALGK [R5G], the protein stability index was 3.02.

MELLITITYQPAASTKMCEQALGK [R5I]: the protein stability index worked out at 3.09.

With MELLCTITYQPAASTKMCEQALGK [R5C], the protein stability index is 1.47.

Consider MELLETITYQPAASTKMCEQALGK [R5E], for which the protein stability index was 3.55.

Regarding MTLLRTITYQPAASTKMCEQALGK [E2T], the protein stability index came to 2.28.

Turning to MSLLRTITYQPAASTKMCEQALGK [E2S], the protein stability index came out at 2.38.

Take MVLLRTITYQPAASTKMCEQALGK [E2V]: the protein stability index stood at 2.13.

With MYLLRTITYQPAASTKMCEQALGK [E2Y], the protein stability index is 2.03.

In the case of MWLLRTITYQPAASTKMCEQALGK [E2W], the protein stability index amounted to 2.57.

For MELLRTITYQRAASTKMCEQALGK [P11R], the protein stability index is 2.16.

MELLRTITYQYAASTKMCEQALGK [P11Y]: the protein stability index amounted to 2.69.

As to MELLRTITYQHAASTKMCEQALGK [P11H], the protein stability index turned out to be 2.39.

Regarding MELLRTITYQGAASTKMCEQALGK [P11G], the protein stability index came out at 2.1.

Consider MELLRTITYQLAASTKMCEQALGK [P11L], for which the protein stability index was found to be 4.39.

MELLRTITYQNAASTKMCEQALGK [P11N]: the protein stability index was 1.82.

As to MELLRTITYQQAASTKMCEQALGK [P11Q], the protein stability index stood at 2.65.

As for MELLRTITYQIAASTKMCEQALGK [P11I], the protein stability index is 2.82.

In the case of MELLRTITYQAAASTKMCEQALGK [P11A], the protein stability index worked out at 2.12.

As to MELLRTITYQFAASTKMCEQALGK [P11F], the protein stability index turned out to be 2.52.

Take MELLRTITYQKAASTKMCEQALGK [P11K]: the protein stability index was 1.93.

For MELLRTITYQSAASTKMCEQALGK [P11S], the protein stability index turned out to be 3.09.

For MELLRTITYQTAASTKMCEQALGK [P11T], the protein stability index was found to be 2.72.

Turning to MELLRTITYQMAASTKMCEQALGK [P11M], the protein stability index was 2.15.

Regarding MELLRTITYQDAASTKMCEQALGK [P11D], the protein stability index came out at 1.6.

On to MELLRTITYQEAASTKMCEQALGK [P11E], for which the protein stability index was determined as 1.91.

For the variant MELLRTITYQVAASTKMCEQALGK [P11V], the protein stability index stood at 3.59.

As to MELLRTIDYQPAASTKMCEQALGK [T8D], the protein stability index turned out to be 2.01.

In the case of MELLRTIMYQPAASTKMCEQALGK [T8M], the protein stability index came to 1.96.

MELLRTINYQPAASTKMCEQALGK [T8N]: the protein stability index worked out at 2.68.

On to MELLRTISYQPAASTKMCEQALGK [T8S], for which the protein stability index stood at 2.21.

As for MELLRTIAYQPAASTKMCEQALGK [T8A], the protein stability index is 2.94.

Regarding MELLRTIGYQPAASTKMCEQALGK [T8G], the protein stability index came to 2.44.

For the variant MELLRTIFYQPAASTKMCEQALGK [T8F], the protein stability index came out at 2.17.

For the variant MELLRTIHYQPAASTKMCEQALGK [T8H], the protein stability index worked out at 2.03.

Take MELLRTIRYQPAASTKMCEQALGK [T8R]: the protein stability index came out at 2.5.

As to MELLRTILYQPAASTKMCEQALGK [T8L], the protein stability index was found to be 2.91.

On to MELLRTIWYQPAASTKMCEQALGK [T8W], for which the protein stability index came to 2.55.

For the variant MELLRTIVYQPAASTKMCEQALGK [T8V], the protein stability index was determined as 2.49.

MELLRTIEYQPAASTKMCEQALGK [T8E]: the protein stability index came to 1.78.

MELLRTIYYQPAASTKMCEQALGK [T8Y]: the protein stability index worked out at 2.93.

MELLRTIPYQPAASTKMCEQALGK [T8P]: the protein stability index turned out to be 1.97.

Turning to MELLRTIKYQPAASTKMCEQALGK [T8K], the protein stability index worked out at 2.25.

Take MELLRTICYQPAASTKMCEQALGK [T8C]: the protein stability index amounted to 2.32.

Regarding MELLRTIQYQPAASTKMCEQALGK [T8Q], the protein stability index was 1.94.

Turning to MELLRTIIYQPAASTKMCEQALGK [T8I], the protein stability index came out at 3.71.

As for MELLRTITYQPMASTKMCEQALGK [A12M], the protein stability index came out at 1.47.

In the case of MELLRTITYQPGASTKMCEQALGK [A12G], the protein stability index turned out to be 2.32.

With MELLRTITYQPFASTKMCEQALGK [A12F], the protein stability index is 2.97.

Regarding MELLRTITYQPLASTKMCEQALGK [A12L], the protein stability index turned out to be 2.57.

With MELLRTITYQPQASTKMCEQALGK [A12Q], the protein stability index came out at 2.03.

On to MELLRTITYQPNASTKMCEQALGK [A12N], for which the protein stability index amounted to 2.8.

In the case of MELLRTITYQPIASTKMCEQALGK [A12I], the protein stability index is 2.35.

MELLRTITYQPCASTKMCEQALGK [A12C]: the protein stability index came out at 2.82.

For MELLRTITYQPSASTKMCEQALGK [A12S], the protein stability index came out at 1.56.

For the variant MELLRTITYQPKASTKMCEQALGK [A12K], the protein stability index worked out at 2.03.

MELLRTITYQPRASTKMCEQALGK [A12R]: the protein stability index was 2.34.

Turning to MELLRTITYQPHASTKMCEQALGK [A12H], the protein stability index came out at 2.41.

Regarding MELLRTITYQPPASTKMCEQALGK [A12P], the protein stability index amounted to 2.18.

In the case of MELLRTITYQPDASTKMCEQALGK [A12D], the protein stability index turned out to be 1.82.

For MELLRTITYQPEASTKMCEQALGK [A12E], the protein stability index was 2.58.

With MELERTITYQPAASTKMCEQALGK [L4E], the protein stability index stood at 3.69.

For the variant MELNRTITYQPAASTKMCEQALGK [L4N], the protein stability index worked out at 4.01.

As to MELTRTITYQPAASTKMCEQALGK [L4T], the protein stability index was 3.67.

Turning to MELKRTITYQPAASTKMCEQALGK [L4K], the protein stability index came out at 4.05.

In the case of MELMRTITYQPAASTKMCEQALGK [L4M], the protein stability index came out at 1.61.

Consider MELCRTITYQPAASTKMCEQALGK [L4C], for which the protein stability index was found to be 2.02.

As to MELIRTITYQPAASTKMCEQALGK [L4I], the protein stability index is 2.92.

Regarding MELGRTITYQPAASTKMCEQALGK [L4G], the protein stability index was determined as 3.76.

For the variant MELSRTITYQPAASTKMCEQALGK [L4S], the protein stability index was found to be 3.91.

In the case of MELVRTITYQPAASTKMCEQALGK [L4V], the protein stability index is 2.77.

Take MELHRTITYQPAASTKMCEQALGK [L4H]: the protein stability index is 2.6.

Consider MELRRTITYQPAASTKMCEQALGK [L4R], for which the protein stability index came to 3.26.

Consider MELDRTITYQPAASTKMCEQALGK [L4D], for which the protein stability index is 4.39.

Turning to MELWRTITYQPAASTKMCEQALGK [L4W], the protein stability index was determined as 1.7.

Consider MELPRTITYQPAASTKMCEQALGK [L4P], for which the protein stability index amounted to 4.25.

In the case of MELFRTITYQPAASTKMCEQALGK [L4F], the protein stability index was found to be 2.05.

For MELQRTITYQPAASTKMCEQALGK [L4Q], the protein stability index worked out at 2.58.

Take MELYRTITYQPAASTKMCEQALGK [L4Y]: the protein stability index is 1.98.

Consider MELARTITYQPAASTKMCEQALGK [L4A], for which the protein stability index was 2.55.
